Among the data in patent US20260152573A1 are IC50, % max occupancy and IC50 (read off the curve) values, retold here.

pIC50: −log10 of the molar value.

For assay [1], the target named is FcRn (cells of the occupancy assay not stated) (UniProt P55899). Briefly: FcRn occupancy assay, cells not given.
The target in assay [2] is neonatal Fc receptor (FcRn), endogenous in U937 cells (human) (UniProt P55899). Briefly: FcRn occupancy, FACS, U937 cells, with albumin.
The target in assay [3] is FcRn-L322A/L323A expressed in HEK293 cells (human) (UniProt P55899). Briefly: FcRn occupancy, FACS, HEK293-FcRn-mut cells, with albumin.
Assay [4] has the same target. Briefly: FcRn occupancy, FACS, HEK293-FcRn-mut cells, without albumin.
For assay [5], the target named is neonatal Fc receptor (FcRn), endogenous in U937 cells (human) (UniProt P55899). Briefly: cell-based FcRn occupancy assay on U937 cells, flow cytometry; free FcRn stained with anti-FcRn-Fab AF647.

Chain of neonatal Fc receptor (FcRn), endogenous in U937 cells (human) (P55899 24-365 limits assumed, chain 1 of 2): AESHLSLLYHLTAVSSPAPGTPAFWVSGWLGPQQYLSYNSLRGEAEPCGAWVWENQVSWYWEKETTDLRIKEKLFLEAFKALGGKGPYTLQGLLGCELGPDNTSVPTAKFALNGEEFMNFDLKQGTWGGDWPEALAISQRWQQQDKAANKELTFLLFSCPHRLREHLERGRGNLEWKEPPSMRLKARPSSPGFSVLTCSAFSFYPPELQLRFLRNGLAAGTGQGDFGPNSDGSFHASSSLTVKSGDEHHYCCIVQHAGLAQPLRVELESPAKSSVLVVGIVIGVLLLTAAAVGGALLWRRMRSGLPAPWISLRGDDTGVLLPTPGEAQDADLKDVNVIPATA
Chain of neonatal Fc receptor (FcRn), endogenous in U937 cells (human) (chain, as listed by the source limits assumed, chain 2 of 2): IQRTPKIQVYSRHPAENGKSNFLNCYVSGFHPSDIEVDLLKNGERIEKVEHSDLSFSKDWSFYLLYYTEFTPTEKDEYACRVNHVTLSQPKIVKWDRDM

Usually pIC50 stands for the IC50 on a negative log10 scale, so that one unit is a factor of ten. High values mean a low IC50, low ones a high IC50. As to efgartigimod, the pIC50 in assay [1] is 8.22; in assay [2] it was 8.32; in assay [3], 7.79; in assay [4], 8.17. For the same substance, the % max occupancy turned out to be 56.8% in assay [2] and 57.7% in assay [3]. This substance also came in with an IC50 (read off the curve) in assay [5] of 0.3 nM.
